The target of series [1] is T1, GST-TDP-43 (7-414) (Homo sapiens, UniProt Q13148 SEQ:7-414). Nature of the series: competition; up to 50x excess did not compete. The conditions noted are these: tags: N-terminal GST.
Series [2] concerns the target T2, TDP-43 full length (thrombin-cleaved) (Homo sapiens, UniProt Q13148 SEQ:1-414). Description: UV crosslinking. The conditions noted are these: tags: GST removed by thrombin.
The target in series [3] is T2, TDP-43 full length (thrombin-cleaved). Description: UV crosslinking, 43 and 86 kDa species, 160 or 800 ng protein. Conditions: tags: GST removed by thrombin; label: 32P.
The target of series [4] is T1, GST-TDP-43 (7-414). Description: EMSA; 50 mM KCl, 5 mM MgCl2, room temperature; competed by 5-50x unlabeled WT. The conditions noted are these: tags: N-terminal GST; label: 32P.
In the next series the target is GST-TDP-43 (7-166) (Homo sapiens, UniProt Q13148 SEQ:7-166). Description: EMSA; only first RNP-1 retained; bound, affinity higher when both RNP1 and RNP2 present. Conditions: tags: N-terminal GST; label: 32P. (In general: A gel shift assay detects complexes by their altered migration in electrophoresis.)
Chain of GST-TDP-43 (7-166) (Q13148 7-166): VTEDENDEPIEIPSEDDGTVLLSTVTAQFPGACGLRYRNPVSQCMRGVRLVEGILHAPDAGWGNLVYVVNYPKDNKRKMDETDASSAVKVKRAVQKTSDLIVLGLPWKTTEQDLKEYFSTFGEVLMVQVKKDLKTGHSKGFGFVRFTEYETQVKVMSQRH
The target of another series is GST-TDP-43 (7-333) (Homo sapiens, UniProt Q13148 SEQ:7-333). Description: EMSA; glycine-rich domain truncation; bound like wild type. The conditions noted are these: tags: N-terminal GST; label: 32P.
Chain of GST-TDP-43 (7-333) (Q13148 7-333): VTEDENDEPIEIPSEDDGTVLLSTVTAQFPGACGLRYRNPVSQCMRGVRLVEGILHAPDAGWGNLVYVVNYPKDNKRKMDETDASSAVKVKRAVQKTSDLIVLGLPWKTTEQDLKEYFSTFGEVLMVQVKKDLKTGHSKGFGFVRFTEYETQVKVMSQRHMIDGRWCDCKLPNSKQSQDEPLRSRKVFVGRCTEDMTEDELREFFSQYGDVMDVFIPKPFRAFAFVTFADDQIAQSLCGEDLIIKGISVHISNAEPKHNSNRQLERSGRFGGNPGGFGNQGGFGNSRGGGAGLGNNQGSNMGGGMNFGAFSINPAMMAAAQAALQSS
In a further series the target is GST-TDP-43 (7-240) (Homo sapiens, UniProt Q13148 SEQ:7-240). Description: EMSA; glycine-rich domain deleted; bound like wild type. The conditions noted are these: tags: N-terminal GST; label: 32P.
Chain of GST-TDP-43 (7-240) (Q13148 7-240): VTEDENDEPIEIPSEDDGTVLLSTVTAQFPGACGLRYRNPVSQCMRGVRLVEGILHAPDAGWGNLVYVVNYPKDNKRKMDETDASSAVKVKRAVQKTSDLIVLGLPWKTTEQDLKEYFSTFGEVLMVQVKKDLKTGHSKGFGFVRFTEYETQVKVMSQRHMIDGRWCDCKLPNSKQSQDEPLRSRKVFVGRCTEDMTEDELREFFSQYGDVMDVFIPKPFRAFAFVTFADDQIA
Another series has as its target GST-TDP-43 (7-198) (Homo sapiens, UniProt Q13148 SEQ:7-198). Nature of the series: EMSA; part of RNP domain deleted; still bound. The conditions noted are these: tags: N-terminal GST; label: 32P.
Series [5] has as its target T1, GST-TDP-43 (7-414). Nature of the series: competition; up to 50x excess did not significantly compete. Conditions: tags: N-terminal GST.
In series [6] the target is T1, GST-TDP-43 (7-414). Description: competition; up to 50x excess did not significantly compete; listed as -46/-13 in Example 8. The conditions noted are these: tags: N-terminal GST.
Series [7] concerns the target T2, TDP-43 full length (thrombin-cleaved). Description: competition; 50x excess did not compete UV crosslinking. The conditions noted are these: tags: GST removed by thrombin.

From US5688511, “Cellular protein TDP-43 and regulation of HIV-1 gene expression” (Board of Regents, The University of Texas System) come the findings set out here.

T2 sequence (Q13148 whole entry): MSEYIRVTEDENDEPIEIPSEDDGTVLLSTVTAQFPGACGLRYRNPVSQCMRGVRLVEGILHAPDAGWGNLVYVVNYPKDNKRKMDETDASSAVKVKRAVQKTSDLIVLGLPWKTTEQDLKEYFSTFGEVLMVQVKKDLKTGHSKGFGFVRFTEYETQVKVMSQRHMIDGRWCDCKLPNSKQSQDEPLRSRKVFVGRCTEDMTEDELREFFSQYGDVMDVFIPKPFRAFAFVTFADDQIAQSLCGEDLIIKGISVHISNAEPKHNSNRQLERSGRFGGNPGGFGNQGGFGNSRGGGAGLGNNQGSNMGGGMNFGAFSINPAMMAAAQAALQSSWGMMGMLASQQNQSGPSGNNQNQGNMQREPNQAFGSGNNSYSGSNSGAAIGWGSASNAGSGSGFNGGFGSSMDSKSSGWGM
T1 sequence (Q13148 7-414): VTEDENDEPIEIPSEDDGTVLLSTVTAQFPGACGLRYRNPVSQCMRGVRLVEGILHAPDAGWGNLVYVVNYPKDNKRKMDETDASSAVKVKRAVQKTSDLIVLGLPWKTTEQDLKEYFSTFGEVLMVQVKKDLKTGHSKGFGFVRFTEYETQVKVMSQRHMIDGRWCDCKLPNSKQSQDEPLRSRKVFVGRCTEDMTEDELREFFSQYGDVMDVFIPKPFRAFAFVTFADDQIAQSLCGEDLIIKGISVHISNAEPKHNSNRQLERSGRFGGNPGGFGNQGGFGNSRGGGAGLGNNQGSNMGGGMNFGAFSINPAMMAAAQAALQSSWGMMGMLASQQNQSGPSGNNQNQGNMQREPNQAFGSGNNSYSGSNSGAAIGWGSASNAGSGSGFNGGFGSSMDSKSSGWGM
Chain of GST-TDP-43 (7-198) (Q13148 7-198): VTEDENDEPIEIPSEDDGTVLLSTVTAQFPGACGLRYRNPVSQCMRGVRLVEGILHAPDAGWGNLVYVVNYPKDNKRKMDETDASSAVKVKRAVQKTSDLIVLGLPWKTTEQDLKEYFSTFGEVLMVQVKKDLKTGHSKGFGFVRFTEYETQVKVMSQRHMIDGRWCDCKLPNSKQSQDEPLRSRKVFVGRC

B1: HIV-1 LTR -18/+28 delta2 (dsDNA)
DNA 1: CTGCTTTTTGCCTGTACGTACATGCGTACGTTAGACCAGATCT
DNA 2: AGATCTGGTCTAACGTACGCATGTACGTACAGGCAAAAAGCAG
Take B1: the binding result (in the series with GST-TDP-43 (7-414) [1]; in series [2]) was “no binding” in each case.

B2: HIV-1 LTR -18/+28 (TAR DNA) WT (dsDNA)
DNA 1: CTGCTTTTTGCCTGTACTGGGTCTCTCTGGTTAGACCAGATCTGAG
DNA 2: CTCAGATCTGGTCTAACCAGAGAGACCCAGTACAGGCAAAAAGCAG
Regarding B2, the binding result (in series [3]; with GST-TDP-43 (7-414) [4]; in the series with GST-TDP-43 (7-166); with GST-TDP-43 (7-333); in the series with GST-TDP-43 (7-240); in the series with GST-TDP-43 (7-198)) was “binds” each time.

B3: HIV-1 LTR -45/+1 (dsDNA)
DNA 1: GCGTGCCTCAGATGCTGCATATAAGCAGCAGCTGCTTTTTGCCTGTACT
DNA 2: AGTACAGGCAAAAAGCAGCTGCTGCTTATATGCAGCATCTGAGGCACGC
As for B3, the binding result with GST-TDP-43 (7-414) [5] was “no binding”.

B4: AdMLP TATA (dsDNA)
DNA 1: AAGGGGGGCTATAAAAGGGGGTGGGGG
DNA 2: CCCCCACCCCCTTTTATAGCCCCCCTT
For the molecule B4, in the series with GST-TDP-43 (7-414) [1], the binding result is on record as “no binding”.

B5: HIV-1 LTR -45/-13 (dsDNA)
DNA 1: GCGTGCCTCAGATGCTGCATATAAGCAGCTGCTTT
DNA 2: AAAGCAGCTGCTTATATGCAGCATCTGAGGCACGC
B5: the binding result in the series with GST-TDP-43 (7-414) [6] is reported as “no binding”.

B6: HIV-1 LTR -18/+28 delta1+delta2 (dsDNA)
DNA 1: CTGACGTACGTACGTACGTACATGCGTACGTTACGGACCATCT
DNA 2: AGATGGTCCGTAACGTACGCATGTACGTACGTACGTACGTCAG
With B6, the binding result (in [7]; with GST-TDP-43 (7-414) [1]) was “no binding” throughout.

B7: HIV-1 LTR +10/+50 (dsDNA)
DNA 1: GGTTAGACCAGATCTGAGCCTGGGAGCTCTCTGGCTAACTAG
DNA 2: CTAGTTAGCCAGAGAGCTCCCAGGCTCAGATCTGGTCTAACC
Consider B7, for which, in the series with GST-TDP-43 (7-414) [5], the binding result is on record as “no binding”.

B8: HIV-1 LTR -18/+28 delta1 (dsDNA)
DNA 1: CTGACGTACGTACGTACTGGGTCTCTCTGGTTAGACCAGATCT
DNA 2: AGATCTGGTCTAACCAGAGAGACCCAGTACGTACGTACGTCAG
B8: the binding result (with GST-TDP-43 (7-414) [1]; in series [2]) was “no binding” in each case.
